For assay [1], the target named is dH5-0 (hemagglutinin 5 of H5N1 strain A/Vietnam/1203/04 as supplied by Protein Sciences) (influenza A virus H5N1 strain A/Vietnam/1203/04). The assay can be described thus: ELISA, immobilized H5 form, normalized to cdH5-0; average of two measurements.
Assay [2] addresses dH5-II (misfolded H5, heat cycling at pH 2) (influenza A virus H5N1 strain A/Vietnam/1203/04). The assay can be described thus: ELISA, immobilized H5 form, normalized to cdH5-0.
The target of assay [3] is fdH5-0 (ultrafiltrated dH5-0, flow-through of a 1,000 kDa cut-off filter) (influenza A virus H5N1 strain A/Vietnam/1203/04). The assay can be described thus: ELISA, immobilized H5 form, normalized to cdH5-0. (In general: ELISA stands for enzyme-linked immunosorbent assay.)
For assay [4], the target named is cdH5-0 (dH5-0 supernatant after 10 min at 16,000-18,000*g) (influenza A virus H5N1 strain A/Vietnam/1203/04). The assay can be described thus: ELISA, immobilized H5 form, normalized to cdH5-0.
Assay [5] has as its target dH5-III (misfolded H5, about 16 h at 47.5 C) (influenza A virus H5N1 strain A/Vietnam/1203/04). The assay can be described thus: ELISA, immobilized H5 form, normalized to cdH5-0.
In assay [6] the target is dH5-I (misfolded H5, heat cycling at pH 7) (influenza A virus H5N1 strain A/Vietnam/1203/04). The assay can be described thus: ELISA, immobilized H5 form, normalized to cdH5-0.
Assay [7] has as its target nOVA (untreated ovalbumin, 1 mg/ml in PBS) (chicken) (UniProt P01012). The assay can be described thus: ELISA, immobilized OVA form, normalized to nOVA.
Assay [8] deals with dH5-II (misfolded H5, heat cycling at pH 2) (influenza A virus H5N1 strain A/Vietnam/1203/04). The assay can be described thus: ELISA, immobilized H5 form, excess epsilon-amino caproic acid.
In assay [9] the target is fdH5-0 (ultrafiltrated dH5-0, flow-through of a 1,000 kDa cut-off filter) (influenza A virus H5N1 strain A/Vietnam/1203/04). Described as above.
The target of assay [10] is cdH5-0 (dH5-0 supernatant after 10 min at 16,000-18,000*g) (influenza A virus H5N1 strain A/Vietnam/1203/04). Described as above.
For assay [11], the target named is dH5-0 (hemagglutinin 5 of H5N1 strain A/Vietnam/1203/04 as supplied by Protein Sciences) (influenza A virus H5N1 strain A/Vietnam/1203/04). The description is as above.

Drawing on patent publication US20110008376A1, this text covers Normalized affinity, kD (%), Bmax and Kd for two substances.

Usually Kd stands for a measure of binding affinity in units of concentration. Lower therefore signals a tighter complex.

UniProt P01012, sequence (P01012 2-386 limits assumed): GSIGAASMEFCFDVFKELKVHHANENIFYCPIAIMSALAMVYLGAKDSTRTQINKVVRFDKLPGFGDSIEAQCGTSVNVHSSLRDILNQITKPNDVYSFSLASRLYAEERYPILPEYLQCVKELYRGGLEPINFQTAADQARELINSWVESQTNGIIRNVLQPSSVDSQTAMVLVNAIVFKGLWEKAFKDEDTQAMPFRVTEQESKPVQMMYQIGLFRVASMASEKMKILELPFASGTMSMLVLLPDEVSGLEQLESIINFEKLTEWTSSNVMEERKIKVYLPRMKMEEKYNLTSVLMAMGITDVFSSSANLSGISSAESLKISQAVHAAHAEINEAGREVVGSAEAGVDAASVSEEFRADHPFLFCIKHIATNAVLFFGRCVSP

Take “fourth and fifth finger domain of fibronectin (Fn F4-5) (from UniProt P02751 183-274)”: the Normalized affinity, kD (%) in [1] is 103%; in assay [2], 88%; in assay [3], 69%; in [4], 100%; in [5] it was 6%; in [6], 0%. For the same substance, the Normalized affinity, kD (%) in [7] was 100%.
Regarding “tissue type plasminogen activator (tPA) (from UniProt P00750 36-562) (enzyme)”, the Bmax in assay [8] amounted to 0.07; in [9] it was 0.37; in assay [10], 0.36; in [11], 0.32. For the same substance, the dissociation constant (Kd) is 19 nM in [8], 342 nM in assay [9], 102 nM in assay [10] and 96 nM in [11].
